Assay [1] deals with T1, Abeta (human Aβ peptide; Aβ1-40 or Aβ1-28, Table 5 does not say which) (human, UniProt P05067 672-711).
T1 construct: Coated on the ELISA plate at 20 µg/mL in 1% NH4OH; also called A-beta peptide; amyloid beta
As to the kind of experiment: ELISA, Abeta peptide coated on plate, sRAGE-Ig titrated, anti-human IgG-HRP. Here is the method: (§1) Assay for A3 peptide binding activities: Briefly, two human Aβ peptides were tested: Aβ1-40 (Catalogue# A-1153-2, Rpeptide), and Aβ1-28 (Catalogue#24232, AnaSpec). The plates were coated by 20 μg/mL peptide in 1% NH₄OH overnight at 4° C. The plate was then washed with blocking buffer (TBS pH8.0, 0.05% Tween20, and 1% BSA) and blocked for 1 hr at room temperature. All the other steps were performed essentially as described previously herein for S100b binding assay, supra.

Assay [2] has as its target T1, Abeta (human Aβ peptide; Aβ1-40 or …). Description: ELISA, Abeta peptide coated on plate; reference S1 control. The protocol: as §1
For assay [3], the target named is T2, S100b protein (Cat. No. 559290, Calbiochem).
T2 construct: Coated on the ELISA plate at 20 µg/mL in TBS pH 8.0 with 5 mM CaCl2; also called RAGE ligand S100b
T2 sequence (P04271 2-92, species assumed, looked up): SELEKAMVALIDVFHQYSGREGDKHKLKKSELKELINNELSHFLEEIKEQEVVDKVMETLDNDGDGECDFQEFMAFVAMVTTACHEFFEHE
Description: ELISA, S100b coated on plate, sRAGE-Ig titrated, anti-human IgG-HRP. Here is the method: (§2) S100b binding ELISA: An ELISA assay plate was coated with 100 μL/well of 20 μg/mL S100b protein (Cat. No. 559290, Calbiochem, Gibbstown, N.J.) in coating buffer (Tris buffered saline [TBS], pH8.0, with 5 mM CaCl₂) overnight at 4° C. The plate was then washed three times with blocking buffer (TBS pH8.0, with 5 mM CaCl₂, 0.05% Tween20, and 1% bovine serum albumin [BSA]), and blocked with the blocking buffer for 1-1.5 hr. sRAGE-Ig fusion samples were prepared in a separate dilution plate, the highest concentration was 10 μg/mL in blocking buffer, with 1:4 serial dilution in blocking buffer down to 2.4 ng/mL. After blocking, the assay plate was washed with the blocking buffer and 100 μL of the samples were transferred from the dilution plate to the assay plate. The assay plate was incubated at room temperature for 2.5 hr. The assay plate was then washed three times with the blocking buffer, with 1 min soaking time between the washes. The horseradish peroxidase conjugated goat anti-human IgG (Cat. No. A2290, Sigma, St. Louis, Mo.) was added to the plate with 100 μL/well at 1:2500 dilution in the blocking buffer. The plate was incubated for 1 hr at room temperature. The assay plate was then washed three times with the blocking buffer again, and 100 μL 3,3′,5,5′-tetramethylbenzidine (TMB; Cat. No. 34022, Pierce, Rockford, Ill.) was added to each well and the plate was incubated for 8 minutes at room temperature. 100 μL of 1M H₂SO₄ was then added to each well, the plate was shaken and read at 450 nm on a microplate reader.

Assay [4] deals with T2, S100b protein (Cat. No. 559290, …). Description: ELISA, S100b coated on plate; reference S1 control. The protocol:
as §2

Assay [5] has the same target. Description: ELISA, S100b coated on plate; reference S1. Here is the method:
as §2, with “The assay plate was then washed three times with the blocking buffer again, and 100 μL 3,3′,5,5′-tetramethylbenzidine (TMB; Cat. No. 34022, Pierce, Rockford, Ill.) was added to each well and the plate was incubated for 8 minutes at room temperature.” left out

Assay [6] has as its target T1, Abeta (human Aβ peptide; Aβ1-40 or …). As to the kind of experiment: ELISA, Abeta peptide coated on plate; reference S2F1. Here is the method:
as §1

Assay [7] concerns the target T2, S100b protein (Cat. No. 559290, …). Description: ELISA, S100b coated on plate; reference S1F1. The protocol:
as §2, with “The assay plate was then washed three times with the blocking buffer again, and 100 μL 3,3′,5,5′-tetramethylbenzidine (TMB; Cat. No. 34022, Pierce, Rockford, Ill.) was added to each well and the plate was incubated for 8 minutes at room temperature.” left out

Assay [8] addresses T1, Abeta (human Aβ peptide; Aβ1-40 or …). As to the kind of experiment: ELISA, Abeta peptide coated on plate; reference S1. Here is the method: as §1

“And” between values parts separate entries of the source, which are not always exact repeats. Equal values may be shown once.

T1 sequence (P05067 672-711 limits assumed): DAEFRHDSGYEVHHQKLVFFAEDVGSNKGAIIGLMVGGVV

B1: sRAGE-Ig fusion protein, sample S1 (control, from untreated CHO cells, unfractionated) (Fc fusion)
chain: QNITARIGEPLVLKCKGAPKKPPQRLEWKLNTGRTEAWKVLSPQGGGPWDSVARVLPNGSLFLPAVGIQDEGIFRCQAMNRNGKETKSNYRVRVYQIPGKPEIVDSASELTAGVPNKVGTCVSEGSYPAGTLSWHLDGKPLVPNEKGVSVKEQTRRHPETGLFTLQSELMVTPAPGGDPRPTFSCSFSPGLPRHRALRTAPIQPRVWEPVPLEEVQLVVEPEGGAVAPPSVFLFPPKPKDTLMISRTPEVTCVVVDVSHEDPEVKFNWYVDGVEVHNAKTKPREEQYNSTYRVVSVLTVLHQDWLNGKEYKCKVSNKALPAPIEKTISKAKGQPREPQVYTLPPSRDELTKNQVSLTCLVKGFYPSDIAVEWESNGQPENNYKTTPPVLDSDGPFFLYSKLTVDKSRWQQGNVFSCSVMHEALHNHYTQKSLSLSPGK
modifications: N-terminal Gln1 cyclized to pyroglutamic acid (pE1); N-linked glycan sites N2, N58, N288 (numbering without the signal): mixture 3-Glycan = 67%, 2-Glycan = 22%
notes: Mostly a non-covalent homodimer (about 78%), with about 19% heterodimer with a furin-cleaved Fc fragment; C-terminal Lys438 partly clipped; also called S1 = control (untreated); sRAGE-Fc
Take B1: the IC50 is 1.24 nM in assay [1]; 0.18 µg/mL and 1.8 nM in assay [3]. Also, the “Relative binding compared to control” value in assay [2] and in assay [4] was 100% each time.

B2: sRAGE-Ig fusion protein, sample 2 fraction 2 (S2F2), 2-glycan species from tunicamycin treated CHO cells (Fc fusion)
chain: B1 chain
modifications: pE1; two of the three N-linked sites (N2, N58, N288) occupied; the filing cannot tell which
notes: RP-HPLC fraction; also called 2-Glycan only; doubly occupied variant
Consider B2, for which the IC50 in assay [1] is 0.52 nM; in assay [3] it was 0.1 µg/mL and 1 nM.

B3: sRAGE-Ig fusion protein, sample 1 fraction 2 (S1F2), 2-glycan species from untreated CHO cells (Fc fusion)
chain: B1 chain
modifications: pE1; two of the three N-linked sites (N2, N58, N288) occupied; the filing cannot tell which
notes: RP-HPLC fraction; also called 2-Glycan only
For B3, the IC50 in assay [1] is 0.73 nM; in assay [3], 0.104 µg/mL and 1.04 nM.

B4: sRAGE-Ig fusion protein, sample 1 fraction 1 (S1F1), 3-glycan species from untreated CHO cells (Fc fusion)
chain: B1 chain
modifications: pE1; N-linked glycans at all three sites N2, N58, N288 (3-glycan only)
notes: RP-HPLC fraction exchanged into a stabilizing buffer before the ELISA; also called 3-Glycan only; fully occupied 3-glycan version
Consider B4, for which the IC50 in assay [1] was 1.21 nM; in assay [3] it was 0.39 µg/mL and 3.9 nM.

B5: sRAGE-Ig fusion protein, sample 2 fraction 1 (S2F1), 3-glycan species from tunicamycin treated CHO cells (Fc fusion)
chain: B1 chain
modifications: pE1; N-linked glycans at all three sites N2, N58, N288 (3-glycan only)
notes: RP-HPLC fraction; also called 3-Glycan only
Consider B5, for which the IC50 is 2.51 nM in assay [1]; 0.89 µg/mL and 8.9 nM in assay [3].

B6: sRAGE-Ig fusion protein, sample 2 fraction 3 (S2F3), 0-glycan (aglycosylated) species from tunicamycin treated CHO cells (Fc fusion)
chain: B1 chain
modifications: pyroglutamic acid (pE) at the N-terminus; no glycan at N2, N58 or N288; mixture with or without C-terminal lysine
notes: RP-HPLC fraction; its mass agrees with the theoretical mass of the unglycosylated fusion protein; also called 0-Glycan only; aglycosylated variant
For B6, the IC50 in assay [1] is 0.42 nM; in assay [3] it was 0.034 µg/mL and 0.34 nM. In addition, the figures for the “fold increase in binding compared to S1 control” value in assay [5] and in assay [8] were 5 fold and 3 fold, respectively. For the same molecule, the “fold increase in binding compared to 3-glycan S2F1” value in assay [6] is 6 fold. In addition, the “fold increase in binding compared to 3-glycan S1F1” value in assay [7] stood at 10 fold. Also, the “Relative binding compared to control” value came out at 295% in assay [2] and 529% in assay [4].

B7: sRAGE-Ig fusion protein, sample S2 (from CHO cells treated with tunicamycin, unfractionated) (Fc fusion)
chain: B1 chain
modifications: pE1; N-linked sites N2, N58, N288: mixture 3-Glycan = 42%, 2-Glycan = 16%, 0-Glycan = 31%
notes: Cells treated with 5 µg/mL tunicamycin for 3 days; also called S2 = TMYCN (treated with tunicamycin)
As for B7, the IC50 in assay [1] was 0.82 nM; in assay [3], 0.061 µg/mL and 0.61 nM. Also, the results for the “fold binding relative to sample S1” value in assay [5] and in assay [8] were approximately 3 fold and approximately 1.5 fold, respectively. The “Relative binding compared to control” value in assay [2] amounted to 151%; in assay [4], 295%.

(Values after patent US20120039908A1 (TRANSTECH PHARMA, published 2012).)
